The text below walks through data of IntAct's records for PubMed 31515488.

First the molecules themselves.
B1: Transmembrane protein 51 (Homo sapiens), Q9NW97 (parent)
chain: MMAQSKANGSHYALTAIGLGMLVLGVIMAMWNLVPGFSAAEKPTAQGSNKTEVGGGILKSKTFSVAYVLVGAGVMLLLLSICLSIRDKRKQRQGEDLAHVQHPTGAGPHAQEEDSQEEEEEDEEAASRYYVPSYEEVMNTNYSEARGEEQNPRLSISLPSYESLTGLDETTPTSTRADVEASPGNPPDRQNSKLAKRLKPLKVRRIKSEKLHLKDFRINLPDKNVPPPSIEPLTPPPQYDEVQEKAPDTRPPD
partner: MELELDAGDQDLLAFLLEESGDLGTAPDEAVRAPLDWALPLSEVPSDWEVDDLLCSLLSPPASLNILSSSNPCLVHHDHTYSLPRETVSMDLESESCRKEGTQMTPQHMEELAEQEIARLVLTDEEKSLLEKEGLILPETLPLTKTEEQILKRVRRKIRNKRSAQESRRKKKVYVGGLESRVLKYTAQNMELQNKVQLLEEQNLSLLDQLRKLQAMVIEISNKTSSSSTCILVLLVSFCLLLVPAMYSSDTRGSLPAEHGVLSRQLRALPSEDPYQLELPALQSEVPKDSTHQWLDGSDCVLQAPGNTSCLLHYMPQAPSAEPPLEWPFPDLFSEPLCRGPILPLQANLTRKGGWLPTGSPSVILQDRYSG
B2: Protein BANP (Homo sapiens), Q8N9N5-2 (parent)
chain: MMSEHDLADVVQIAVEDLSPDHPVVLENHVVTDEDEPALKRQRLEINCQDPSIKSFLYSINQTICLRLDSIEAKLQALEATCKSLEEKLDLVTNKQHSPIQVPMVAGSPLGATQTCNKVRCAVPGRRQNTIVVKVPGQEDSHHEDGESGSEASDSVSSCGQAGSQSIGSNVTLITLNSEEDYPNGTWLGDENNPEMRVRCAIIPSDMLHISTNCRTAEKMALTLLDYLFHREVQAVSNLSGQGKHGKKQLDPLTIYGIRCHLFYKFGITESDWYRIKQSIDSKCRTAWRRKQRGQSLAVKSFSRRTPNSSSYCPSEPMMSTPPPASELPQPQPQPQALHYALANAQQVQIHQIGEDGQVQVIPQGHLHIAQVPQGEQVQITQDSEGNLQIHHVGQDGQVLQGAQLIAVASSDPAAAGVDGSPLQGSDIQVQYVQLAPVSDHTAGAQTAEALQPTLQPEMQLEHGAIQIQ
partner: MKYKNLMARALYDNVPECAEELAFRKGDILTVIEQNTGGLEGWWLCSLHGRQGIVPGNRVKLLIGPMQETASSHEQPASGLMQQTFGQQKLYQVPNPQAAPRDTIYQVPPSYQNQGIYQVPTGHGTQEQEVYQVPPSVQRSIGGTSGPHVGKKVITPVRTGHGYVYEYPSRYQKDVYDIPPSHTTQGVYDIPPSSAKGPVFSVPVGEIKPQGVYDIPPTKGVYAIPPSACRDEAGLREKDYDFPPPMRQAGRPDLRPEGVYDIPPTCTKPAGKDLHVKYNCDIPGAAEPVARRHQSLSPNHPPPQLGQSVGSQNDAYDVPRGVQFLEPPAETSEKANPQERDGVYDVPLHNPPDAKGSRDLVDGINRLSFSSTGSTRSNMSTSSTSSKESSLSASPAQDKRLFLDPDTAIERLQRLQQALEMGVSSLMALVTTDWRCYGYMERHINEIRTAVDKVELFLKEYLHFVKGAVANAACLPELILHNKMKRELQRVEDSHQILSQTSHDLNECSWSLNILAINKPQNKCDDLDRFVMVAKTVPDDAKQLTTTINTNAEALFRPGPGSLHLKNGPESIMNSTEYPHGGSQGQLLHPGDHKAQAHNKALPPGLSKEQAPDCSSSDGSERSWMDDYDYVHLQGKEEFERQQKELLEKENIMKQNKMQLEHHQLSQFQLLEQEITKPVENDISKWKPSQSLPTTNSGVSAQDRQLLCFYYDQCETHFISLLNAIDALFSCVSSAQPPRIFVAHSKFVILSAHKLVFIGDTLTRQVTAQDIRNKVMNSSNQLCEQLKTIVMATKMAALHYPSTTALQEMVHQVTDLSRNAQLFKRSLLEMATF
B3: Melanoma-associated antigen 8 (Homo sapiens), P43361 (parent)
chain: MLLGQKSQRYKAEEGLQAQGEAPGLMDVQIPTAEEQKAASSSSTLIMGTLEEVTDSGSPSPPQSPEGASSSLTVTDSTLWSQSDEGSSSNEEEGPSTSPDPAHLESLFREALDEKVAELVRFLLRKYQIKEPVTKAEMLESVIKNYKNHFPDIFSKASECMQVIFGIDVKEVDPAGHSYILVTCLGLSYDGLLGDDQSTPKTGLLIIVLGMILMEGSRAPEEAIWEALSVMGLYDGREHSVYWKLRKLLTQEWVQENYLEYRQAPGSDPVRYEFLWGPRALAETSYVKVLEHVVRVNARVRISYPSLHEEALGEEKGV
B4: Embryonal Fyn-associated substrate (Homo sapiens), O43281 (parent)
chain: MAIATSTQLARALYDNTAESPQELSFRRGDVLRVLQREGAGGLDGWCLCSLHGQQGIVPANRVKLLPAGPAPKPSLSPASPAQPGSPYPAPDHSNEDQEVYVVPPPARPCPTSGPPAGPCPPSPDLIYKIPRASGTQLAAPRDALEVYDVPPTALRVPSSGPYDCPASFSHPLTRVAPQPPGEDDAPYDVPLTPKPPAELEPDLEWEGGREPGPPIYAAPSNLKRASALLNLYEAPEELLADGEGGGTDEGIYDVPLLGPEAPPSPEPPGALASHDQDTLAQLLARSPPPPHRPRLPSAESLSRRPLPALPVPEAPSPSPVPSPAPGRKGSIQDRPLPPPPPRLPGYGGPKVEGDPEGREMEDDPAGHHNEYEGIPMAEEYDYVHLKGMDKAQGSRPPDQACTGDPELPERGMPAPQEALSPGEPLVVSTGDLQLLYFYAGQCQSHYSALQAAVAALMSSTQANQPPRLFVPHSKRVVVAAHRLVFVGDTLGRLAASAPLRAQVRAAGTALGQALRATVLAVKGAALGYPSSPAIQEMVQCVTELAGQALQFTTLLTSLAP

In the first experiment the parent is B1. The note with it: with creb3_human CREB3, O43889.
Take D188G: the “effect of a mutation on the interaction” value was “with no effect”.
With P159S, the “effect of a mutation on the interaction” value is “with no effect”.
Still for that read-out and setting: the same measure for R146W: “with no effect”; for P237L: “with no effect”.

In a further experiment the parent is B2. The note with it: with casl_human NEDD9, Q14511.
In the case of A162V, the “effect of a mutation on the interaction” value is reported as “with no effect”.

A further experiment covers variants of B3. As to conditions: with bex5_human BEX5, Q5H9J7.
Sequence of bex5_human BEX5, Q5H9J7 (Q5H9J7 whole entry): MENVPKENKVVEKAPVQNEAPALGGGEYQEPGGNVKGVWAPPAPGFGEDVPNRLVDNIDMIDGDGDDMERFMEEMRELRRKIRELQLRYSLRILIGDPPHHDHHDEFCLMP
Take R9C: the “effect of a mutation on the interaction” value is “with no effect”.
On the same count and under the same terms, the entry for R121H is “with no effect”.

The variants in a further experiment derive from B4. The note with it: with blk_human BLK.
As to S265F, the “effect of a mutation on the interaction” value was “with no effect”.

The variants in another experiment derive from B4. As to conditions: with nck2_human NCK2, O43639.
Sequence of nck2_human NCK2, O43639 (O43639 whole entry): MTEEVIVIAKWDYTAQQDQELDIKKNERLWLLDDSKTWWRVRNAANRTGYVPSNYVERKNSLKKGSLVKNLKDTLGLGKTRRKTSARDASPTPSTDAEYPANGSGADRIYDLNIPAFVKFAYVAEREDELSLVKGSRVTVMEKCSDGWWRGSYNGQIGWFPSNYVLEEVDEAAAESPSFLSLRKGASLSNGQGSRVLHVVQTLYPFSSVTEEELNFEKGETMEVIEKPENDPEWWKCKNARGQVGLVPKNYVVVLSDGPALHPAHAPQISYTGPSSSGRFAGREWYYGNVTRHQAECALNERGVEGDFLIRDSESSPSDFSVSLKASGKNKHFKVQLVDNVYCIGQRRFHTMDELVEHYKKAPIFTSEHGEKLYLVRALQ
Consider S265F, for which the “effect of a mutation on the interaction” value is given as “with no effect”.

The variants in another experiment derive from B4. As to conditions: with abi2_human ABI2, Q9NYB9.
Sequence of abi2_human ABI2, Q9NYB9 (Q9NYB9 whole entry): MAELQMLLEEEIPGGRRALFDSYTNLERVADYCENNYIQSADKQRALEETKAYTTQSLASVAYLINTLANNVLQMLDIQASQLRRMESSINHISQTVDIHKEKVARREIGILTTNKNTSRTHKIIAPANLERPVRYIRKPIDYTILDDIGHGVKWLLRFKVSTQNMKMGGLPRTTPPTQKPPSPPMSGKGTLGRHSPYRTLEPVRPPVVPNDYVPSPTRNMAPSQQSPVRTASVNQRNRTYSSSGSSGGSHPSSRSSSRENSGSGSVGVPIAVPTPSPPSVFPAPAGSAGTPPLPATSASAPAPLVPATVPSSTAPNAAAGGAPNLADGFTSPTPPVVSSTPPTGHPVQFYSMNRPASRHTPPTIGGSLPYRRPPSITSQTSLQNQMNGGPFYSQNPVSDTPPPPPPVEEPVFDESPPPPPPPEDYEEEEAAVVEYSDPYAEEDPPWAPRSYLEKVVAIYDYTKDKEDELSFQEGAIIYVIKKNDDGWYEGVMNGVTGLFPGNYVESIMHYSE
For S265F, the “effect of a mutation on the interaction” value is recorded as “with no effect”.

In a further experiment the parent is B4. The note with it: with fyn_human FYN.
S265F: the “effect of a mutation on the interaction” value is on record as “with no effect”.
